Results reported in patent US20220396632A1 (VERSEAU THERAPEUTICS, published 2022).
Non-standard residues stand in square brackets, D forms with d. No end group written: not given here. *: point of attachment. Biotin = O=C1N[C@H]2[C@H](CS[C@H]2CCCCC(=O)*)N1; sY = N[C@@H](Cc1ccc(OS(=O)(=O)O)cc1)C(=O)O

T1: SulfoTyr C4 peptide (not fully specified; Y4, Y7 and Y9 sulfated (SO3); C-terminal biotin)
T1 construct: also called C4 alpha chain peptide; human sulfotyrosinylated C4 peptide
T1 peptide: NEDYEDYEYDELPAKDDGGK

T2: Sulfotyr fibrinogen γ peptide (not fully specified; Y8 and Y12 sulfated (SO3); C-terminal biotin)
T2 construct: also called Fibrinogen gamma peptide; human sulfotyrosinylated fibrinogen peptide
T2 peptide: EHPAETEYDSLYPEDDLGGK

T3: Recombinant human PSGL-1(ECD)-hFc1 (R&D Systems, Cat. 3345-PS) (human, UniProt Q14242 42-305)
T3 construct: Bought; Gln42-Val295 counted on AAC50061; also called PSGL-1-Fc; PSGL-1-hFc1 chimera; not shown: human IgG1 Fc, Pro100-Lys330
T3 sequence: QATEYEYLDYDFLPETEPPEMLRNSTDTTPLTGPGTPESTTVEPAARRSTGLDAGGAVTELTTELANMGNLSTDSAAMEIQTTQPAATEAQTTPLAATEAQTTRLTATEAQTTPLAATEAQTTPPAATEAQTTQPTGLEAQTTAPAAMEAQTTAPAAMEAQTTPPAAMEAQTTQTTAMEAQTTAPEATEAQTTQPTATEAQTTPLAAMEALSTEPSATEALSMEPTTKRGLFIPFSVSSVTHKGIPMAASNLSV

T4: Human fibrinogen protein (ThermoFisher, RP-43142) (human, UniProt P02671 20-629; P02675 31-491; P02679 27-453, limits assumed, natural sulfotyrosines)
T4 construct: mature; Native dimer with 3 pairs of non-identical chains; also called gamma-fibrinogen; γ fibrinogen protein
T4 sequence (looked up) 1: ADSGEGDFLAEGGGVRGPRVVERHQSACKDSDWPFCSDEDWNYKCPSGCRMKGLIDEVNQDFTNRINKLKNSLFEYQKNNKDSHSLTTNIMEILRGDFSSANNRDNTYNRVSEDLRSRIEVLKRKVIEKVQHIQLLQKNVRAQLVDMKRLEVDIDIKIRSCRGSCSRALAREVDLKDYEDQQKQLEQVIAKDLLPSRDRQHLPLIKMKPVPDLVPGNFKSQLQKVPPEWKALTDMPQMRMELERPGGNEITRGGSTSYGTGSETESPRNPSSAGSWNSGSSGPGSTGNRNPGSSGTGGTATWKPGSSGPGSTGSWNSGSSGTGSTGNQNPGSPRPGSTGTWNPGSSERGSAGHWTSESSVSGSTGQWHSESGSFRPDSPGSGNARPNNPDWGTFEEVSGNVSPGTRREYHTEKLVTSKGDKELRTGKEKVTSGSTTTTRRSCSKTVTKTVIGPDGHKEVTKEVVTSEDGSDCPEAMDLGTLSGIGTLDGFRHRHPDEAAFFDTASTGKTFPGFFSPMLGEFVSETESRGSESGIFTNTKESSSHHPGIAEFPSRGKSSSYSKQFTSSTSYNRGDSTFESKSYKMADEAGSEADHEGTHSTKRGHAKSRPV
T4 sequence (looked up) 2: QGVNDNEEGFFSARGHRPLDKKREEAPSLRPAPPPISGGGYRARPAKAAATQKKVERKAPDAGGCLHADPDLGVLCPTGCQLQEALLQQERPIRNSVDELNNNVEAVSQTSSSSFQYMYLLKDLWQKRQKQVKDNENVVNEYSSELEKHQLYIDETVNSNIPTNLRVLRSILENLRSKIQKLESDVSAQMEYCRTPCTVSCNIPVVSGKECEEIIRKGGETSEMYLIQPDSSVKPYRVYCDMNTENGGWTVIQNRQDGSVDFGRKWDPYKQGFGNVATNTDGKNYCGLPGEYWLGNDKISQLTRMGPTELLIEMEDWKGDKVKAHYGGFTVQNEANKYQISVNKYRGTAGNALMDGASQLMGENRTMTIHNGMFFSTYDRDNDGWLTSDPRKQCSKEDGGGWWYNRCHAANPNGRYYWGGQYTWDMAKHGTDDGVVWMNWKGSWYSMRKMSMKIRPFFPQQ
T4 sequence (looked up) 3: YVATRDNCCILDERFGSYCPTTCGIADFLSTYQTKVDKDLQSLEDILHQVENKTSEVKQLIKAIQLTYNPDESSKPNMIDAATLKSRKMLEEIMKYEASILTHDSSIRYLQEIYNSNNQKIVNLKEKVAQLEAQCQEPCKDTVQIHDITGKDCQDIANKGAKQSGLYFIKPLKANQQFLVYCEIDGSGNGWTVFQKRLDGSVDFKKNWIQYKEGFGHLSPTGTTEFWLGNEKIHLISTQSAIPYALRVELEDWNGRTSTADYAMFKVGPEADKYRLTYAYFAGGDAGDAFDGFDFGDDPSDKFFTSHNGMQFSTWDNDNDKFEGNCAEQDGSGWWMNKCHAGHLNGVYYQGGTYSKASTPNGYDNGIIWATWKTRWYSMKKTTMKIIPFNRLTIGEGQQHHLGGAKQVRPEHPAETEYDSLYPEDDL

T5: SulfoCCK biotin peptide (human)
T5 construct: also called sulfotyrosine CCK peptide
T5 peptide: SHRISDRD[sY]MGWMDFGGK(Biotin)

T6: Sulfotyrosine CCR2b biotin peptide (human)
T6 construct: also called CCR2b peptide
T6 peptide: TTFFD[sY]D[sY]GAPSHGGK(Biotin)

T7: Sulfotyrosine D6 biotin peptide (human)
T7 construct: also called D6 peptide
T7 peptide: ENSSFY[sY][sY]D[sY]LDEVAFGGK(Biotin)


How the values were obtained:
SulfoTyr C4 peptide = molecular target: T1, SulfoTyr C4 peptide; assay: ELISA, 50 nM mAb
Description: (§1) Recombinant PSGL-1-hFc1 chimera protein consisting of PSGL-1's extracellular domain (ECD) served as a positive control. […] Primary antibody was added (25 ul per well) in duplicate at 50 nM in assay buffer (blocking buffer containing 0.05% Tween®20) into test and control (just blocked) wells and the plate incubated for 45 min at 37° C.

[1] = molecular target: T2, Sulfotyr fibrinogen γ peptide; assay: ELISA, 50 nM mAb
Description: as §1

[2] = molecular target: T3, Recombinant human PSGL-1(ECD)-hFc1 (R&D …); assay: ELISA, 50 nM mAb
Description: as §1

[3] = molecular target: T8, Human complement C4 protein (Millipore Sigma, Cat. 204886) (human, UniProt P0C0L4 20-675; P0C0L4 680-1446; P0C0L4 1454-1744, limits assumed, natural sulfotyrosines); assay: ELISA, 50 nM mAb
T8 construct: mature
Description: as §1

[4] = molecular target: T4, Human fibrinogen protein (ThermoFisher, …); assay: ELISA, 50 nM mAb
Description: as §1

SulfoCCK biotin peptide = molecular target: T5, SulfoCCK biotin peptide; assay: ELISA, 50 nM mAb
Description: as §1

[5] = molecular target: T6, Sulfotyrosine CCR2b biotin peptide; assay: ELISA, 50 nM mAb
Description: as §1

[6] = molecular target: T7, Sulfotyrosine D6 biotin peptide; assay: ELISA, 50 nM mAb
Description: as §1

[7] = molecular target: T3, Recombinant human PSGL-1(ECD)-hFc1 (R&D …); assay: blocking ELISA vs VISTA-Fc, pH 6.0

T8 sequence (P0C0L4 20-675 limits assumed, form in doubt, chain 1 of 3): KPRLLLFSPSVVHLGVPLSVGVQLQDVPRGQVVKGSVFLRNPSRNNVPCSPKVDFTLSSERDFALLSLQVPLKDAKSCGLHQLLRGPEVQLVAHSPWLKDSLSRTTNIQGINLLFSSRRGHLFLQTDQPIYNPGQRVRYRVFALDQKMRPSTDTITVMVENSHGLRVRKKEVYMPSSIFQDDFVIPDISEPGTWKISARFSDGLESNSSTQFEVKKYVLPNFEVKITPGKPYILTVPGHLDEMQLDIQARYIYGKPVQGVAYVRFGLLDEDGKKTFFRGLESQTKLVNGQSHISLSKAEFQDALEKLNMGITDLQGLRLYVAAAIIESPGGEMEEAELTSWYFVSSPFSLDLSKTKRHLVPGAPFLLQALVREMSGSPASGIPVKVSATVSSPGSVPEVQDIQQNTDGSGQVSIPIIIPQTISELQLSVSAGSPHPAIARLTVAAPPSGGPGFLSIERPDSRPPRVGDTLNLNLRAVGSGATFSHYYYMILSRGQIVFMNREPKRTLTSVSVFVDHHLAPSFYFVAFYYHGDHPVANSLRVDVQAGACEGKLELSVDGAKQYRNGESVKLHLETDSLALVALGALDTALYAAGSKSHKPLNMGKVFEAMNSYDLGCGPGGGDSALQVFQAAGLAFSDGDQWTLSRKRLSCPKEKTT
T8 sequence (P0C0L4 680-1446 limits assumed, form in doubt, chain 2 of 3): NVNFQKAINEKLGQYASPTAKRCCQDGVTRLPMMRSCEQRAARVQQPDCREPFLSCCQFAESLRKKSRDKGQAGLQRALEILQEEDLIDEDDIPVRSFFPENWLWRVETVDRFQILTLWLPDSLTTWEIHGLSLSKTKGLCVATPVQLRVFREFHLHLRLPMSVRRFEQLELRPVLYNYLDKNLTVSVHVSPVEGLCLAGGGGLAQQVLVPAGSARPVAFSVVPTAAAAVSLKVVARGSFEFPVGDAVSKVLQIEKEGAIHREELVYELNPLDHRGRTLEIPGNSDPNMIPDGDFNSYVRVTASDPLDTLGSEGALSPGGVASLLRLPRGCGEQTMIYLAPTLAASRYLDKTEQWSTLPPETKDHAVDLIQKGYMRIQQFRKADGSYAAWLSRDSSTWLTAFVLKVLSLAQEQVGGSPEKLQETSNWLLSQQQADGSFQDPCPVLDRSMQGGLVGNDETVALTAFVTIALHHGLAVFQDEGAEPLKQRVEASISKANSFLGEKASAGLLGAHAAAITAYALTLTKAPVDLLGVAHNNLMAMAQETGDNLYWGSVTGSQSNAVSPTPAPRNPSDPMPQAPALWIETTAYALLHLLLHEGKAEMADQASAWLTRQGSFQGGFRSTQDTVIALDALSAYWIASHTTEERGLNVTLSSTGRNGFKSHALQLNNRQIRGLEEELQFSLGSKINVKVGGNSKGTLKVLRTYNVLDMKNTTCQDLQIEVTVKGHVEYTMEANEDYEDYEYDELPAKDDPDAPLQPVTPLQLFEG
T8 sequence (P0C0L4 1454-1744 limits assumed, form in doubt, chain 3 of 3): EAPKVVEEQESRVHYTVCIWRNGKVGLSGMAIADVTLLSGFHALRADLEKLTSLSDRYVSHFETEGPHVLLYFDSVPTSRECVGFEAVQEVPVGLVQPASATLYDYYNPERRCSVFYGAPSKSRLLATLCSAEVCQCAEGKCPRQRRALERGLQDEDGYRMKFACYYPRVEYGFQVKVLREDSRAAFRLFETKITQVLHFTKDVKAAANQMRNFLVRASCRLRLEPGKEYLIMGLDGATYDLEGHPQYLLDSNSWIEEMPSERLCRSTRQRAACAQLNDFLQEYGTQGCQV

Row | binding normalized to PSGL-1 (SulfoTyr C4 peptide) | binding normalized to PSGL-1 [1] | A450nm [2] | binding normalized to PSGL-1 [3] | binding normalized to PSGL-1 [4] | binding normalized to PSGL-1 (SulfoCCK biotin peptide) | binding normalized to PSGL-1 [5] | binding normalized to PSGL-1 [6] | % max Block [7] | IC50 [7] | Binder
1 | 0.47 | 0.42 | 2.27 A450nm | 0.48 | 0.06 | 0.17 | 0.06 | 0.52 | – | – | 05C02 (antibody, V domains shown) VH: EVKLLESGGGVVQPGRSLRLSCAASGFTFKNFAMHWVRQAPGKGLEWVAVISYDGSSEDYADSVKGRFTLSRDNAKNSLYLQMNNLRAEDTAVYYCARGRRPDYWGQGTLVTVSS VL: not shown
2 | 0.63 | 0.69 | 2.51 A450nm | 0.57 | 0.12 | 0.65 | 0.43 | 0.68 | – | – | 06A07 (antibody, IgG4, V domains shown) VH: QVQLVQSGPELKNPGASVKVSCKASGYSFTNFYINWVRQAPGRGLEWVGWISPNNGNTHYARNLQGRVTMTTDTSTNTAYLELKNLRSDDTAIYFCGRSVSMGYWGQGTLVTVSS VL: LPVLTQPPSVSKGLRQTATLTCTGNSKNVGNQGAAWLQQHQGQPPKLLSYRNNNRPSGISERFSASRSGNTASLTITGLQPEDEADYYCSAWDSSLSAQVFGGGTKLTVL
3 | – | – | – | – | – | – | – | – | 100% | 9 nM | 43B6 (antibody, V domains shown, Control anti-PSGL-1 mAb, recombinant; only variable domains given; also called 43B3) VH: EVQLQQSGPDLVKPGALVKISCKASGYSFTAYYIHWVKQSHGKSLEWIGRVNPNTGGTSYNPKFKGKAILNVDKSSSTAYMELRSLTSEDSAVYYCARSGSPYYRYDDWGQGTTLTVSS VL: ENVLTQSPAIMSASPGEKVTMTCRASSTVNSTYLHWFQQKSGASPKLWIYGSSNLASGVPARFSGSGSGTSYSLTISSVEAEDAATYYCQQYSGYPLTFGAGTTLELK
4 | 1 | 1.06 | 2.51 A450nm | 0.56 | 0.29 | 1.1 | 0.93 | 1.1 | – | – | 09A02 (antibody, IgG4, V domains shown) VH: EVQLVQSGGGLVKPGGSLRLSCAASGFTFRTAWMSWVRQAPGKGLEWVGRMKSKNDGGTTDYAAPVKGRFTISRDDSRDTVYLQMNSLKTEDTGVYYCATYAAGATVPWGQGTLVTVSS VL: DIVMTQTPLSAPVTLGQPASISCRSSRSLLQRNGYNYVDWYQQKAGNPPRLLIYLGSRRASGVPDRFSGSGSDKDFTLKISRVEADDVGFYFCKQSLQAPPTFGGGTKIEIT
5 | – | – | – | – | – | – | – | – | 0% | – | 16E17 (antibody, V domains shown, From mouse immunisation; only variable domains given) VH: QIQLVQSGPELKKPGETVKISCKASGYAFTTYGMSWVKQAPGKGLKWMGWINTYSGVPKYADDFKGRFAFSLETSASTAYLHINNLKNEDTATYFCGRHYYGSSYFDYWGQGTTLTVSS VL: not shown
6 | – | – | – | – | – | – | – | – | 0% | – | 19L04 (antibody, IgG4, V domains shown, From mouse immunisation; only variable domains given) VH: QIQLVQSGPELKKPGETVKISCKASGYTFTTYGMSWVKQAPGKGLKWMGWINTYSGVPTYADDFKGRFAFSLETSASTAYLQINNLKIEDTATYFCARHYYGSHYFDYWGQGTTLTVSS VL: DIMMTQSPSSLAMSVGQKVTLRCKSSQSLLNSSNQKNYLAWYQQKPGQSPKLLVYFASTRESGVPVRFIGSGSGTDFTLTISSMQAEDLADYFCQQHYFSPLTFGAGTKLELK
7 | – | – | – | – | – | – | – | – | 100% | 8 nM | 9F9 (antibody, V domains shown, Control anti-PSGL-1 mAb, recombinant; only variable domains given; also called 9F6) VH: EVQLVETGGGLVQPKGSLKLSCAASGFTFNTNAMNWVRQAPGKGLEWVARIRSKSNNYATYYADSVKDRFTISRDDTQSMIYLQMNNLKTEDTGMYYCVRGGSYWYFDVWGAGTTVTVSS VL: DVLMTQTPLSLPVSLGDQASISCRSSQSIVNSNGNTYLEWYLQKPGQSPKLLIYKVSNRFSGVPDRFSGSGSGTDFTLKISRVEAEDLGVYYCFQGSHVPWTFGGGTKLEIK
8 | 0.94 | 1.15 | 2.22 A450nm | 1.1 | 0.51 | 0.06 | 0.23 | 0.26 | – | – | 06C04 (antibody, IgG4, V domains shown) VH: EVQLVESGGGLVQPGGSLRLSCAASGFTFSDHYMDWVRQAPGKGLEWVGRSRNKVKSYTTAYAASVEGRITISRDDSKNSLYLEMNSLKTEDTAVYYCVRVRWGGAFDIWGQGTMVTVSS VL: QPVLTQPPSASGSPGQSVTISCTGTSSDVGGYNYVSWYQQHPGKAPKLMIYEVSKRPSGVPDRFSGSKSGNTASLTVSGLQAEDEADYYCSSYAGSNNLRVFGGGTKLTVL
9 | 1.15 | 1.3 | 2.16 A450nm | 0.88 | 0.61 | 0.75 | 1.23 | 1.2 | – | – | 09C10 (antibody, V domains shown) VH: EVKLLESGGGLIQPGGSLRLSCAASGFTVSNNYVTWVRQAPGKGLELVSSIYSGGGTYYADSVKGRFTISRDNSKNTVYLQMNSLRADDTAVYYCARNVPVTNFGYWGQGTLVTVSS VL: DIVMTQSPLSLPVTLGQPASISCRSSQSLVYRDGNTYLNWFQQRPGQSPRRLIYKVSNRDSGVPDRFSGSGSGTDFTLKISRVEAEDVGVYYCMQLTHWPPGFAQGTKLEIK
10 | – | – | – | – | – | – | – | – | 0% | – | 18K07 (antibody, V domains shown, From mouse immunisation; only variable domains given) VH: QIQLVQSGPELKKPGETVKISCEASGYTFTTYGMNWVKQAPGKGLKWMGWINTYSGVPTYADDFQGRFAFSVETSATTAYLQINNLKNEDAATYFCARSDDTYYGFAYWGQGTLVTVSA VL: not shown
